Assay results published in patent CN114656564A (ANHUI ANKE BIOLOGICAL ENG GROUP CO LTD, dated 2022).

T1: rhOX40-Avi-His (human, UniProt P43489 29-214)
T1 construct: range 29-214; Recombinant protein made from plasmid pCD-OX40-Avi-His; also called OX40抗原; 抗原蛋白OX40; not shown: Avi tag; His tag
T1 sequence (looked up): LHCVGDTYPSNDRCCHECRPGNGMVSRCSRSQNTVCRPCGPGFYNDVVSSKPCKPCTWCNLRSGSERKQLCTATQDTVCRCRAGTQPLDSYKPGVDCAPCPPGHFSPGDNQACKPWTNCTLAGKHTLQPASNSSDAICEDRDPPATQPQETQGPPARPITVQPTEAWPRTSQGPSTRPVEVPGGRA

T2: human OX40 expressed on Jurkat cells (Jurkat-OX40-NFκB-Luc) (human, UniProt P43489 29-277)
T2 construct: whole, on cells; also called Jurkat-OX40-NFκB-21C6; 表达OX40抗原的Jurkat细胞系
T2 sequence (looked up): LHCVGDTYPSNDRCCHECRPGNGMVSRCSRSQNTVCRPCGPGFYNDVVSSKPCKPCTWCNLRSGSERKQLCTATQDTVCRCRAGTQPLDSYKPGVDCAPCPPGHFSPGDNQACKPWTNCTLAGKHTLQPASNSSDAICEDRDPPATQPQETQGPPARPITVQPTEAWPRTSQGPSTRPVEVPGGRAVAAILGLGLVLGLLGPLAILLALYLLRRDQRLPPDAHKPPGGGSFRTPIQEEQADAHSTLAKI

T3: rhOX40-Avi-His-bio (human, UniProt P43489 29-214, biotin covalently attached to the Avi tag by BirA)
T3 construct: range 29-214; Biotinylated form of rhOX40-Avi-His, captured on SA chip in SPR; also called 生物素标记的抗原; not shown: Avi tag (biotinylated); His tag
T3 sequence (looked up): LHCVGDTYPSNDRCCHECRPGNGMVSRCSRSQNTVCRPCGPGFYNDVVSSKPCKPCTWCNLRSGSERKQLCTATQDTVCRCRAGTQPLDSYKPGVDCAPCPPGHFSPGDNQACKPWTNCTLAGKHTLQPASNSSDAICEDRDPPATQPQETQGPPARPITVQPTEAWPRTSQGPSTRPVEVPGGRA


What was measured:
rhOX40-Avi-His = target: T1, rhOX40-Avi-His; test: ELISA on coated rhOX40-Avi-His
[1] = target: T2, human OX40 expressed on Jurkat cells …; test: flow cytometry on Jurkat cells expressing OX40, anti-human Fc-FITC
rhOX40-Avi-His-bio = target: T3, rhOX40-Avi-His-bio; test: SPR (T200), biotinylated rhOX40-Avi-His-bio captured on SA chip, D7-Fc as analyte

| Binder | binding result (rhOX40-Avi-His) | binding result [1] | Kd (rhOX40-Avi-His-bio) [nM] |
| --- | --- | --- | --- |
| D1-Fc (Fc fusion, not shown: IgG1 Fc region, from human) DVQLVESGGGLVQPGGSLRLSCAASGRTASGYTIGWFRQAPGKGRELVSAINRAGSATHYADSVKGRFTISRDNAKNTVYLQMNSLRAEDTAVYYCARSGRWGRYWLAYWGQGTQVTVSA | binds | binds | – |
| C7-Fc (Fc fusion, not shown: IgG1 Fc region, from human) DVQLVESGGGLVQPGGSLRLSCAASGSIPSDTAMYWFRQAPGKGREWVSVIWGSGVTYYADSVKGRFTISRDNAKNTVYLQMNSLRAEDTAVYYCARTGLGRAYWGQGTQVTVSA | binds | – | – |
| D12-Fc (Fc fusion, not shown: IgG1 Fc region, from human) DVQLVESGGGLVQPGGSLRLSCAASGRQFGSYAMSWFRQAPGKGREWVSTIDSAGGSTNYADSVKGRFTISRDNAKNTVYLQMNSLRAEDTAVYYCARLIDWYCIDYFDYWGQGTQVTVSA | binds | – | – |

The remaining lines, values ahead:

| binding result (rhOX40-Avi-His) | binding result [1] | Kd (rhOX40-Avi-His-bio) [nM] | Binder |
| --- | --- | --- | --- |
| – | – | ~16.8 | D7-Fc (Fc fusion, not shown: IgG1 Fc region, from human) DVQLVESGGGLVQPGGSLRLSCAASGFTASIYGMRWFRQAPGKGRELVAGIVDAGSATYYADSVKGRFTISRDNAKNTVYLQMNSLRAEDTAVYYCARGNHEGEVGLDYWGQGTQVTVSA |
| binds | binds | – | D2-Fc (Fc fusion, not shown: IgG1 Fc region, from human) DVQLVESGGGLVQPGGSLRLSCAASGLTSSLYIWGWFRQAPGKGREWVSTIWDADVTDYADSVKGRFTISRDNAKNTVYLQMNSLRAEDTAVYYCARRDFDSLADGLDYWGQGTQVTVSA |
| binds | binds | – | A1-Fc (Fc fusion, not shown: IgG1 Fc region, from human) DVQLVESGGGLVQPGGSLRLSCAASGFSYNRTDIRWFRQAPGKGRELVAGIANWGGTTYYADSVKGRFTISRDNAKNTVYLQMNSLRAEDTAVYYCARRRYECVDWIVDPWWDYWGQGTQVTVSA |
